Source: patent publication US20190071477A1

Experiments:
C3b [1] = biological target: C3b (UniProt P01024); test: ELISA on plates coated with C3b (5 ug/mL), detection with mouse anti-human CFH antibody and HRP goat anti-mouse, OD450
C3b [2] = biological target: C3b (UniProt P01024); test: cell-based or functional assay

Sequence of hSCR (1-7)-mFc fusion protein (chain): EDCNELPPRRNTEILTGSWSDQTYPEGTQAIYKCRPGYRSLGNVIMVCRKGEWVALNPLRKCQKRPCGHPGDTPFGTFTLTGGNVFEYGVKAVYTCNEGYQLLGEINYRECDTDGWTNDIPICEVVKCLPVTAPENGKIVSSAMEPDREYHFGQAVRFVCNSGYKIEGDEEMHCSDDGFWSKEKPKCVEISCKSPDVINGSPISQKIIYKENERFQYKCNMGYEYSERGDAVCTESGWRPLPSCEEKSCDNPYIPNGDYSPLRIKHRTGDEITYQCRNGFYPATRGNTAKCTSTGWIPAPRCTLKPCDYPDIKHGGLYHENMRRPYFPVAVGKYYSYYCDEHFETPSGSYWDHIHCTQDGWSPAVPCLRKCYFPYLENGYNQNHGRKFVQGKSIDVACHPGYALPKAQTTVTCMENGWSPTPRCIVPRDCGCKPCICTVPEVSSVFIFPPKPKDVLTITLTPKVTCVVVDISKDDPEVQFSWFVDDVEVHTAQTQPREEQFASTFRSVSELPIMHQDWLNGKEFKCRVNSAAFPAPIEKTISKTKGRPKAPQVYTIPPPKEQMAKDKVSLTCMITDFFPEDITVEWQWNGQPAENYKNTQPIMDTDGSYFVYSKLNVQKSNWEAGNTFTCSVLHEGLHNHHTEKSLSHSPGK
Sequence of hSCR (1-7)-hSCR (18-20)-hFc fusion protein (P08603 other isoform, or with tags, fused parts or gaps limits assumed): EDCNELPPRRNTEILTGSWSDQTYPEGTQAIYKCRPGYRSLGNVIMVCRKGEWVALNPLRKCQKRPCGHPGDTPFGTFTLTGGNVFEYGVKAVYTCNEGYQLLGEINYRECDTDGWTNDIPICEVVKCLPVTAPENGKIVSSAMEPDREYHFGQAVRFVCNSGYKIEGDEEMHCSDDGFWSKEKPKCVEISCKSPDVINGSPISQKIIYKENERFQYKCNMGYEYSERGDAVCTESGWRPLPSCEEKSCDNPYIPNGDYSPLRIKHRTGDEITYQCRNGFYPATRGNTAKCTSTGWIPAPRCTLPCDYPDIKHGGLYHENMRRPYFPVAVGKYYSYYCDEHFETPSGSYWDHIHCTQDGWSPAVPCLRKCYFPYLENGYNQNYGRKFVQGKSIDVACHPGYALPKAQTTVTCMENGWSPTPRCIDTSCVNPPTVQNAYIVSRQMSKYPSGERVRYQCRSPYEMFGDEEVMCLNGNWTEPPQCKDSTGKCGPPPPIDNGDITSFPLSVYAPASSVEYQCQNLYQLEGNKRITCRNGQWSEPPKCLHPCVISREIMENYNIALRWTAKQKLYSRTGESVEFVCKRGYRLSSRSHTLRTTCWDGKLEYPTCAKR
Sequence of human CFH (complement Factor H) (P08603 19-1231 limits assumed): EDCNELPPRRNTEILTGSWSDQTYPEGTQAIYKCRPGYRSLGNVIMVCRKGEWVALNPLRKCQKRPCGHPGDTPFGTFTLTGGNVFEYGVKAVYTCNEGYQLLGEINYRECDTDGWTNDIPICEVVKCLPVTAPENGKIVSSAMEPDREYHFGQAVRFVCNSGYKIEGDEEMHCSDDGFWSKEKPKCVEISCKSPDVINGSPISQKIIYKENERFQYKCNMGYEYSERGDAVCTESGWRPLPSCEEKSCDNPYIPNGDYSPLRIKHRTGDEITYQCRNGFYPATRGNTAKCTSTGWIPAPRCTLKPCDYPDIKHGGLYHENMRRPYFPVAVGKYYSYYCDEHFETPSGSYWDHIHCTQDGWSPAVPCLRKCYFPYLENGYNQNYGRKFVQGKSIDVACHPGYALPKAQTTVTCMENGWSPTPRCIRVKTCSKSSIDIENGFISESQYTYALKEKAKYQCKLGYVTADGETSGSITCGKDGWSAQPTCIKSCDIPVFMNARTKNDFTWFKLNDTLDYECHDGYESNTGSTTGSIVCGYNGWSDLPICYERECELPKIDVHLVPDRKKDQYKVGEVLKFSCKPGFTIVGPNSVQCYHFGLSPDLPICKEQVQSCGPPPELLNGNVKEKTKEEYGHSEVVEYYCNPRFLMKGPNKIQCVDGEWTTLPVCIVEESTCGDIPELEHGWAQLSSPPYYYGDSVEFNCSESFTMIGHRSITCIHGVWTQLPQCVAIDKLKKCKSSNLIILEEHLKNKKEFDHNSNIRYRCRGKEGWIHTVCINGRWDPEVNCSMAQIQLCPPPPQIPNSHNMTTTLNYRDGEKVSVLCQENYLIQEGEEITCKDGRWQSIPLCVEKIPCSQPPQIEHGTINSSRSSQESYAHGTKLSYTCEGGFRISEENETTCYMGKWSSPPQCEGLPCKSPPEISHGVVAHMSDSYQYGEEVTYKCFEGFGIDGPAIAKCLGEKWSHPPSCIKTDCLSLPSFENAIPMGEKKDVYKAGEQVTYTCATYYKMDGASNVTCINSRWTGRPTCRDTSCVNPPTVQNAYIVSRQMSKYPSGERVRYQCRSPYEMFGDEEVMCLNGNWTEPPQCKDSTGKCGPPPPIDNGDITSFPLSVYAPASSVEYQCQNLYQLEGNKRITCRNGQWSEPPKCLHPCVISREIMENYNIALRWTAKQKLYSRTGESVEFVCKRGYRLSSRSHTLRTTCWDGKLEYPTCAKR

| EC50 (read off the curve) (C3b [1]) [nM] | Substance | IC50, inhibition of rabbit red blood cell hemolysis mediated by the alternative complement pathway (C3b [2]) [µM] | hemolysis inhibiting activity relative to human CFH (C3b [2]) [times] |
| --- | --- | --- | --- |
| 30 | hSCR (1-7)-hFc fusion protein | 0.074 | 5 |
| 30 | hSCR (1-7)-mFc fusion protein | 0.086 | – |
| – | human CFH (complement Factor H) (from UniProt P08603 19-1231) | 0.37 | – |
| – | hSCR (1-7)-hSCR (18-20)-hFc fusion protein (from UniProt P08603 19-1231) | 0.33 | – |
